From US20230416343A1
Where two headings read alike, the source gives them in different places.

Tests used:
Conditions in all cases: remark: other sources report otherwise
[1] = molecular target: T1, Recombinant SARS-CoV2 RBD having a carboxy terminal his tag (SARS-CoV-2), P0DTC2
[2] = molecular target: T1, Recombinant SARS-CoV2 RBD having a …; remark: listed apart in the source
[3] = molecular target: T2, SARS-CoV-2 D614G mutant spike protein expressed on HEK293 cells (SARS-CoV-2), P0DTC2
[4] = molecular target: T3, SARS-CoV-2 spike protein expressed on HEK293 cells (SARS-CoV-2), P0DTC2
[5] = molecular target: T2, SARS-CoV-2 D614G mutant spike protein …; remark: listed apart in the source
[6] = molecular target: SARS-CoV-2 variant spike protein E484K on HEK293 cells (SARS-CoV-2), P0DTC2
[7] = molecular target: SARS-CoV-2 variant spike protein F490S on HEK293 cells (SARS-CoV-2), P0DTC2
[8] = molecular target: SARS-CoV-2 variant spike protein S494P on HEK293 cells (SARS-CoV-2), P0DTC2
[9] = molecular target: SARS-CoV-2 variant spike protein deletion mutant del 243-244 on HEK293 cells (SARS-CoV-2), P0DTC2
[10] = molecular target: T3, SARS-CoV-2 spike protein expressed on …; experiment: flow cytometry on HEK293 cells expressing the spike; table 'spike'

Row | Binder | Kd [1] [nM] | Kd [2] [nM] | EC50 [3] [µg/mL] | Maxi % [3] [%] | EC50 [4] [µg/mL] | EC50 [5] [µg/mL] | EC50 [6] [µg/mL] | EC50 [7] [µg/mL] | EC50 [8] [µg/mL] | EC50 [9] [µg/mL] | Maxi % [10] [%]
1 | antibody S1D2 (antibody, V domains shown) VH: EVQLVESGGGLIQPGGSLRLSCAASGFTVSSNYMSWVRQAPGKGLEWVSIIYPGGSTNYADSVKGRFTISRDNSRNTLYLQMNSLRAEDTAVYYCARELGYYGMDVWGQGTTVTVSS VL: DIQMTQSPSSVSASVGDRVTITCRASQGISTWLVWYQQKPGKAPNLLIYGASSLQSGVPSRFSGSGSGTDFTLTISSLQPEDFATYYCQQANSFPYTFGQGTKLEIK | 46 | 46.2 |  |  |  |  |  |  |  |  | 
2 | S1D2LALA antibody (STI-1499) (antibody, V domains shown) VH: EVQLVESGGGLIQPGGSLRLSCAASGFTVSSNYMSWVRQAPGKGLEWVSIIYPGGSTNYADSVKGRFTISRDNSRNTLYLQMNSLRAEDTAVYYCARELGYYGMDVWGQGTTVTVSS VL: DIQMTQSPSSVSASVGDRVTITCRASQGISTWLVWYQQKPGKAPNLLIYGASSLQSGVPSRFSGSGSGTDFTLTISSLQPEDFATYYCQQANSFPYTFGQGTKLEIK |  |  | 0.13 | 100 | 0.1 | 70 | 140 | 38 | 194 | 180 | 100
